Laboratory results from publication PMC9054013 (2022).

Legend:
Assay in all cases: ITC
[1] = biological target: AP2 α-appendage (residues 695 to 938) (UniProt P17427 695-938)
FCHO2-N1+N2 EEK mutant = FCHO2-N1+N2 EEK mutant (human, UniProt Q0JRZ9-1 314-394, E320S | E321S | K326S)
FCHO2-N1+N2 E336A+F339S = FCHO2-N1+N2 E336A+F339S (human, UniProt Q0JRZ9-1 314-394, E336A | F339S)

AP2 α-appendage (residues 695 to 938), sequence (P17427 695-938): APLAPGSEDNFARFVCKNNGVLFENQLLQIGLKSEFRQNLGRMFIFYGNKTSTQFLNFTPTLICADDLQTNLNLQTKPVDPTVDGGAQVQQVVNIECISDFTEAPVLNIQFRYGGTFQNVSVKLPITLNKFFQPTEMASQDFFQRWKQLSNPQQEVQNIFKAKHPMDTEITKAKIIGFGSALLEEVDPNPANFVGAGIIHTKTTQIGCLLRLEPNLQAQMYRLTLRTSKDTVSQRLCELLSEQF

Row | Kd [1] [µM] | Kd (FCHO2-N1+N2 EEK mutant) [µM] | Kd (FCHO2-N1+N2 E336A+F339S) [µM] | Binder
1 | 44 |  |  | QSEEQVSKNLFGPPLESAFDHED [FCHO1 C peptide (residues 426 to 448)]
2 |  | 110 | 55 | Cμ2 (μ2 residues 160 to 435) (domain or fragment) GWRREGIKYRRNELFLDVLESVNLLMSPQGQVLSAHVSGRVVMKSYLSGMPECKFGMNDKIVIEKQGKGTADETSKSGKQSIAIDDCTFHQCVRLSKFDSERSISFIPPDGEFELMRYRTTKDIILPFRVIPLVREVGRTKLEVKVVIKSNFKPSLLAQKIEVRIPTPLNTSGVQVICMKGKAKYKASENAIVWKIKRMAGMKESQISAEIELLPTNDKKKWARPPISMNFEVPFAPSGLKVRYLKVFEPKLNYSDHDVIKWVRYIGRSGIYETRC
